From patent publication US20100298225A1, “PEPTIDE GAP JUNCTION MODULATORS” (priority 2007, published 2010)

Biological target: T1, carboxyl terminal domain (CT) of Cx43 (Rattus norvegicus, UniProt P08050)
T1 construct: GST (N, cleaved yes); made in house; host or cells: E. coli BL-21
Test: Peptide binding to Cx43CT determined using surface plasmon resonance (SPR)
Settings: for SPR respons: immobilised recombinant Cx43CT; for SPR data normalised on Mw: value = (SPRrespons*100)/Mw
Method: 277(39):36706-36714 (2002), which is hereby incorporated by reference in its entirety. Briefly, cDNA derived from rat Cx43 was inserted into pGEX-6P-2 (Amersham) and expressed in E. coli (BL-21). The resultant GST-fusion protein was cleaved from the GST PreScission Protease® (Amersham Biosciences). The recombinant product after cleavage contained the sequence 255-382 of rCx43 preceded by four additional amino acids (GPLG). Protein concentration was measured using the Bio-Rad DC Protein Assay. Protein purity was assessed by SDS-PAGE.
Recombinant Cx43CT was covalently bound to a carboxylmethyl dextran matrix (Salamon et al., “Surface Plasmon Resonance Spectroscopy as a Tool for Investigating the Biochemical and Biophysical Properties of Membrane Protein Systems. II: Applications to Biological Systems,” Biochim. Biophys. Acta 1331(2):131-152 (1997), which is hereby incorporated by reference in its entirety). Specific peptides were presented and, when feasible, dissociation constants (KD) were calculated from the time course of binding and unbinding of the ligand, using a 1:1 (Langmuir) association and dissociation kinetic model (Biacore software package). In both phases (association and dissociation), the first 5-8 seconds of recording were not included in the fit, to avoid artifacts resulting from peptide distribution within the flow cells (Lang et al., “Surface Plasmon Resonance as a Method to Study the Kinetics and Amplitude of Protein-protein Binding,” in PRACTICAL METHODS IN CARDIOVASCULAR RESEARCH 936-947 (Stefan Dhein, Friedrich Wilhelm Mohr & Mario Delmar eds., 2005), which is hereby incorporated by reference in its entirety).
The peptides shown in table 2 and 3 were tested for binding to the carboxyl terminal domain (CT) of Cx43 using Surface Plasmon Resonance (“SPR”). SPR is a method that was used to identify the original RXPE sequence (Shibayama et al., “Identification of a Novel Peptide that Interferes with the Chemical Regulation of Connexin-43,” Circ. Res. 98:1365-72 (2006)). The amplitude of the response is also a function of the mass of the ligate, and the normalized data according to the individual peptide Mw's are shown in table 3.

T1 sequence (P08050 255-382): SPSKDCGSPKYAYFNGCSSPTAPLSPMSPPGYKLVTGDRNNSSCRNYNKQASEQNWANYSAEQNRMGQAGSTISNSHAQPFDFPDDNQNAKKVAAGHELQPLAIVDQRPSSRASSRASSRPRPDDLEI

Substance “Ac-Arg-Arg-Asn-Tyr-Gly-Gly-Gly-Ser-Ala-Val-Pro-Phe-Tyr-Arg-Arg-Asn-Tyr-NH2 (Ac-RRNYGGGSAVPFYRRNY-NH2) [Compound 2508]” has an SPR respons (peptide 25 uM) of 31.1 arbitrary units, an SPR respons (peptide 100 uM) of 121.9 arbitrary units and an SPR respons (peptide 250 uM) of 284.6 arbitrary units. The SPR respons (peptide 500 uM) was 546.8 arbitrary units and the SPR respons (peptide 1 mM) was 1024.5 arbitrary units.

Work on “Ac-Arg-Arg-Asn-Tyr-Val-Pro-Arg-Arg-Asn-Tyr-NH2 (Ac-RRNYVPRRNY-NH2) [Compound 2512]” yielded an SPR respons (peptide 25 uM) of 14.8 arbitrary units, an SPR respons (peptide 100 uM) of 50.7 arbitrary units and an SPR respons (peptide 250 uM) of 117.2 arbitrary units. It also gave an SPR respons (peptide 500 uM) of 227.3 arbitrary units and an SPR respons (peptide 1 mM) of 394.7 arbitrary units.

For “Ac-Arg-Arg-Asn-Tyr-NH2 (Ac-RRNY-NH2) [Compound 2498]”, the SPR respons (peptide 500 uM) was 50.9 arbitrary units, the “SPR data normalised on Mw” value (peptide 500 uM) was 7.9 and the SPR respons (peptide 1 mM) was 91 arbitrary units. For the same substance, the “SPR data normalised on Mw” value (peptide 1 mM) was 14.0.

Work on “Ac-Tyr-Asn-Arg-Arg-Gly-Gly-Gly-Ser-Ala-Val-Pro-Phe-Tyr-Ser-His-Ser-Tyr-Asn-Arg-Arg-NH2 (Ac-YNRRGGGSAVPFYSHSYNRR-NH2) [Compound 2496]” yielded an SPR respons (peptide 25 uM) of 67.7 arbitrary units, an SPR respons (peptide 100 uM) of 155.9 arbitrary units and an SPR respons (peptide 250 uM) of 358.1 arbitrary units. It also gave an SPR respons (peptide 500 uM) of 738.6 arbitrary units and an SPR respons (peptide 1 mM) of 1402 arbitrary units.

Work on “Ac-Arg-Arg-Asn-Tyr-Gly-Gly-Gly-Arg-Arg-Asn-Tyr-NH2 (Ac-RRNYGGGRRNY-NH2) [Compound 2509]” yielded an SPR respons (peptide 25 uM) of 21.5 arbitrary units, an SPR respons (peptide 100 uM) of 62.5 arbitrary units and an SPR respons (peptide 250 uM) of 148.5 arbitrary units. It also gave an SPR respons (peptide 500 uM) of 280.8 arbitrary units and an SPR respons (peptide 1 mM) of 478.9 arbitrary units.

In the case of “Ac-Arg-Arg-Asn-Tyr-Ser-Ala-Val-Pro-Phe-Tyr-Ser-His-Ser-Arg-Arg-Asn-Tyr-NH2 (Ac-RRNYSAVPFYSHSRRNY-NH2) [Compound 2506]”, the SPR respons (peptide 25 uM) is reported as 51.7 arbitrary units, the SPR respons (peptide 100 uM) is reported as 117.2 arbitrary units and the SPR respons (peptide 250 uM) is reported as 327 arbitrary units. The SPR respons (peptide 500 uM) was 561.8 arbitrary units and the SPR respons (peptide 1 mM) was 1172.8 arbitrary units.

For “Ac-Arg-Arg-Asn-Tyr-Ala-Val-Pro-Phe-Arg-Arg-Asn-Tyr-NH2 (Ac-RRNYAVPFRRNY-NH2) [Compound 2511]”, the SPR respons (peptide 25 uM) was 16.2 arbitrary units, the SPR respons (peptide 100 uM) was 90.5 arbitrary units and the SPR respons (peptide 250 uM) was 214.2 arbitrary units. For the same substance, the SPR respons (peptide 500 uM) was 389.6 arbitrary units and the SPR respons (peptide 1 mM) was 691.5 arbitrary units.

With “Ac-Tyr-Asn-Arg-Arg-NH2 (Ac-YNRR-NH2) [Compound 2499]” the SPR respons (peptide 1 mM) was 69.4 arbitrary units and the “SPR data normalised on Mw” value (peptide 1 mM) was 10.7.

With “Ac-Arg-Arg-Asn-Tyr-Ser-His-Ser-Arg-Arg-Asn-Tyr-NH2 (Ac-RRNYSHSRRNY-NH2) [Compound 2507]” the SPR respons (peptide 25 uM) was 42.3 arbitrary units, the SPR respons (peptide 100 uM) was 113.5 arbitrary units and the SPR respons (peptide 250 uM) was 254.2 arbitrary units. For the same substance, the SPR respons (peptide 500 uM) was 438.5 arbitrary units and the SPR respons (peptide 1 mM) was 703.2 arbitrary units.

With “Ac-Arg-Arg-Asn-Tyr-Gly-Gly-Ser-Ala-Val-Pro-Phe-Tyr-Ser-His-Arg-Arg-Asn-Tyr-NH2 (Ac-RRNYGGSAVPFYSHRRNY-NH2) [Compound 2510]” the SPR respons (peptide 25 uM) was 40.3 arbitrary units, the SPR respons (peptide 100 uM) was 176.2 arbitrary units and the SPR respons (peptide 250 uM) was 331.5 arbitrary units. The SPR respons (peptide 500 uM) was 643.3 arbitrary units and the SPR respons (peptide 1 mM) was 1188 arbitrary units.
